Several values for one entry are separate records, joined by “and”; a condition that tells them apart may be missing. Equal entries are not always repeated.

Test [1] has as its target T1, recombinant human LAG-3 extracellular domain fused with mouse Fc (hLAG-3-mFc) (human, UniProt P18627 29-450).
T1 construct: range 29-450; Made in HEK293F cells; also called human LAG-3 antigen; wild-type (WT) LAG-3; not shown: mouse Fc (mFc) at the carboxy terminal
T1 sequence (looked up): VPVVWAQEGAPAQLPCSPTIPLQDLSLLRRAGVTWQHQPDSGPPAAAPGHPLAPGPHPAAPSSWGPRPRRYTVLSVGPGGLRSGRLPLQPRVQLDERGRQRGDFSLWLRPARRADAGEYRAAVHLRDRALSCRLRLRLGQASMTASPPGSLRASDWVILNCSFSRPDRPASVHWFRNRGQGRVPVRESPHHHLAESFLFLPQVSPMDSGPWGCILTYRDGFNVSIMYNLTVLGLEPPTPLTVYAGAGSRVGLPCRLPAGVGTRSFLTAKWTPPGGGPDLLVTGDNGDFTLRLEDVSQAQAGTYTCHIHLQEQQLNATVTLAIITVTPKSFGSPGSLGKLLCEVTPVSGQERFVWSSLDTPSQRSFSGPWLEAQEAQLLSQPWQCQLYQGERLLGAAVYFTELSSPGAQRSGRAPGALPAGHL
Put plainly: flow cytometry, inhibition of LAG-3-mFc binding to Raji cells (MHC class II). How it is done: After that, the antigen-antibody mixture was reacted with the prepared cells for 30 minutes at 4° C. […] After washing them in the same manner as above and suspending them in 0.2 ml PBS containing 2% FBS, analysis was made using CytoFLEX flow cytometer (Beckman coulter, USA)

Test [2] concerns the target T2, recombinant monkey LAG-3 fused with mouse Fc (MrhLAG-3-mFc) (monkey).
T2 construct: also called monkey LAG-3 antigen
Put plainly: Octet biolayer interferometry, 1:1 global fit. How it is done: (§1) After stabilization for 10 minutes in a buffer (#18-1042, Fortebio Inc.), immobilized antigen or antibody was washed out for 5 minutes with the buffer. The antibody or antigen desired for binding was prepared at different concentrations (0.94-60 nM) in a 96-well plate (#655209, Greiner Bio-One, USA) and subjected to the association reaction for 10 minutes followed by dissociation reaction for 10 minutes or 30 minutes.

In test [3] the target is T3, recombinant mouse LAG-3 fused with mouse Fc (mLAG-Fc) (mouse, UniProt Q61790 24-442, limits assumed).
T3 construct: also called mouse LAG-3 antigen; not shown: mouse Fc (mFc) at the carboxy terminal
T3 sequence (looked up): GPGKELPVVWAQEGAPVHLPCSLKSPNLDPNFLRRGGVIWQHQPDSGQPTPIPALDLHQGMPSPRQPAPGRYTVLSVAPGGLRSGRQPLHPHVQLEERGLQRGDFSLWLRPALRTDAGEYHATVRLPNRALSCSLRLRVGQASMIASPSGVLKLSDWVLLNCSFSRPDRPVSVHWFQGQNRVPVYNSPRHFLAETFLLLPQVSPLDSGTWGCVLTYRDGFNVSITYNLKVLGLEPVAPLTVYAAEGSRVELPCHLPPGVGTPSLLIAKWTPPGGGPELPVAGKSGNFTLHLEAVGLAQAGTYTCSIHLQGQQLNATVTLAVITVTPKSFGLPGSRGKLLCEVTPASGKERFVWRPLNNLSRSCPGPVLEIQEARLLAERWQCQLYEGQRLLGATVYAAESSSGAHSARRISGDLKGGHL
Put plainly: Octet biolayer interferometry, 1:1 global fit. Here is the method:
as §1

Test [4] addresses T1, recombinant human LAG-3 extracellular …. Put plainly: Octet biolayer interferometry, 1:1 global fit. Here is the method:
as §1

Test [5] deals with T2, recombinant monkey LAG-3 fused with …. In words: BLI (Octet QKe), 1:1 global fit. How it is done: as §1
For test [6], the target named is T3, recombinant mouse LAG-3 fused with …. In words: BLI (Octet QKe), 1:1 global fit. How it is done:
as §1

Test [7] concerns the target T1, recombinant human LAG-3 extracellular …. In words: BLI (Octet QKe), 1:1 global fit. How it is done:
as §1

The target in test [8] is T4, human LAG-3 overexpressed on cells (human, UniProt P18627 23-525).
T4 construct: whole, on cells; also called HEK293E-hLAG3; hLAG3 (Human)
T4 sequence (looked up): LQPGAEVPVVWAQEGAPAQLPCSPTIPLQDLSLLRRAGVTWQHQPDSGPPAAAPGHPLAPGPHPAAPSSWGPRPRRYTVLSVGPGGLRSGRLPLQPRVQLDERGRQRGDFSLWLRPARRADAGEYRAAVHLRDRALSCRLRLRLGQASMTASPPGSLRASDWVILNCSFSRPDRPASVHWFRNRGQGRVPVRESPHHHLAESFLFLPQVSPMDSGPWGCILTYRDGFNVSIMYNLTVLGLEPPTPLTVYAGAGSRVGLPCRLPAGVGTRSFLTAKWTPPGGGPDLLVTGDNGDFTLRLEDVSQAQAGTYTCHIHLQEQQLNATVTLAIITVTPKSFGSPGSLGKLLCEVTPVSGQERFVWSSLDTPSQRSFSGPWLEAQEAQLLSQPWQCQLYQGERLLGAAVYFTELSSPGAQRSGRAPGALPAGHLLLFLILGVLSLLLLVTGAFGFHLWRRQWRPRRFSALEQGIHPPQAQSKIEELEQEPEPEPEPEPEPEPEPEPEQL
Put plainly: flow cytometry, HEK293E cells overexpressing human LAG-3. How it is done: After that, the cells were washed three times with PBS containing 2% FBS and then subjected to the reaction for 30 minutes at 4° C. with anti-human IgG antibody (#FI-3000, Vectorlabs) linked with FITC fluorescent. The cells were washed by the same washing process as above followed by suspension in 0.2 ml PBS containing 2% FBS. The cells were then analyzed by FACSCanto II flow cytometer.

Test [9] deals with T4, human LAG-3 overexpressed on cells. In words: cell-based or functional assay.
The target is the same in test [10]. In words: cell-based or functional assay. This is another data set of the same source.

B1: human anti-LAG-3 monoclonal antibody 1E09 (antibody, V domains shown)
VH: QVQLVQSGGDLVKPGGSLRLSCAASGFSFSDHYMNWIRQAPGKGLEWVAYIDTSATYIYYADSVKGRFTISRDNAKNSLYLQMNSLRAEDTAVYYCARDNWGSLDYWGQGALVTVSS
VL: DIQMTQSPSSLSPSVGDRVTITCQASQEISIYLNWYQQKPGKAPKLLIYDASNLETGVPSRFSGSGSGTDFTLTISSLQPEDFATYYCQQTYITPYTFGQGTKLDIK
notes: Tested as full IgG converted from scFv; also called LAG-3-1E09; Parent (1E09)
Turning to B1, in [1], the IC50 was 25.1 nM. In addition, the figures for the koff in test [2], in [3] and in test [4] were 6.08e-05 s⁻¹, 0.000256 s⁻¹ and 7.23e-05 s⁻¹, respectively. Besides, the kon in test [2] was 185000 M⁻¹ s⁻¹; in [3], 430000 M⁻¹ s⁻¹; in test [4], 788000 M⁻¹ s⁻¹. In addition, the Kd in test [5] turned out to be 0.328 nM; in test [6], 0.596 nM; in test [7] it was 0.0918 nM. The response in test [8] was half-maximal at 0.0757 µg/mL (EC50). The “EC50 value representing the capacity of recovering the inhibition” value in test [9] was 0.0578 µg/mL. In addition, the “activity against the control antibody (fold)” value in test [9] was about 2.9 times. Further, the “EC50 (µg/ml), LAG3/MHC class II Blockade bioassay” value in test [10] was 0.0688 µg/mL and 0.186 µg/mL.

Source of the values: patent US20210238283A1 (Y BIOLOGICS, published 2021).
